In article PMC5778138, “Interaction of the Morphogenic Protein RodZ with the Bacillus subtilis Min System” (Frontiers in Microbiology, 2017) one finds Kd data, which are given here for one molecule.

In this test the target is T1, His-tagged cytosolic part of MinJ, fluorescently labeled (B. subtilis, labeled with the amine-reactive red fluorescent dye NT-647 NHS).
T1 chain: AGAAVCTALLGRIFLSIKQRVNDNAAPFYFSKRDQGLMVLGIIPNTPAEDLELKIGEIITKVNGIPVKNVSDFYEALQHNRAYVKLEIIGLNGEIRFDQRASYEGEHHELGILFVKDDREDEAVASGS
The experiment in a line: MST; NT-647-labeled His-cyt-MinJ at 34 μM, cyt-RodZ titrated from 6.7 nM to 221 μM in 16 capillaries; Monolith NT.115; the methods call the Kd preliminary. The following applies: both partners purified.

B1: His-tagged cytosolic part of RodZ (domain or fragment)
chain: VTELGIRLKEAREEKAMSLDDLQAATKIQKRYLTALEEGNYDIIPGKFYVRAFIKQYAEAVGLDADQLFEEHKKDIPNTYHDDVSEKISGMNLQKEMPKPASKALE
B1: the Kd was found to be 5.1 ± 0.6 µM.
